Measurements: US20160137708A1 (Amgen, published 2016)
Like-named read-outs stand apart in the source and are kept apart here.

T1: human IL-1Rrp2 (IL-1R-related protein 2) (human, UniProt Q9HB29 20-575)
T1 sequence (looked up): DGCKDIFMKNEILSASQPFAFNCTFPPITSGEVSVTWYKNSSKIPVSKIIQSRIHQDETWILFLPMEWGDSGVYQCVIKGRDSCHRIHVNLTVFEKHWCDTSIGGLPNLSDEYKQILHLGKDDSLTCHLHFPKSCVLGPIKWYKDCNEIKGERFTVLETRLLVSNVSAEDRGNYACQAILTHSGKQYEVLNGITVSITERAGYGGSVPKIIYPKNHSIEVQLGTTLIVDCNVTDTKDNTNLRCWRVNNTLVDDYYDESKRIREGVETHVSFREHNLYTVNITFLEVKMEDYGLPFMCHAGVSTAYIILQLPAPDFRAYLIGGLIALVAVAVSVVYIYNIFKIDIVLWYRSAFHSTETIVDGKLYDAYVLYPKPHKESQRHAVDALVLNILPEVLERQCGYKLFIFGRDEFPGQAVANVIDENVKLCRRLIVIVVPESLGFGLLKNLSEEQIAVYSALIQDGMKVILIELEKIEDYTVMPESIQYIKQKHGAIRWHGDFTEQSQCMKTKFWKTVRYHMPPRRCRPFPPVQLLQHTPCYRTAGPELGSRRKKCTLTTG


Columns and labels:
Experiment in all cases: cell-based or functional assay
[1] = molecular target: T1, human IL-1Rrp2 (IL-1R-related protein 2)
[2] = molecular target: T1, human IL-1Rrp2 (IL-1R-related protein 2); remark: listed apart in the source
[3] = molecular target: T1, human IL-1Rrp2 (IL-1R-related protein 2); remark: listed apart in the source

| Binder | EC50, IL-8 ELISA of supernatants of Jurkat T-REx cells expressing human IL-1Rrp2 [1] | EC50, luciferase reporter assay in IL-1Rrp2 transfected Jurkat cells [1] | EC50, IL-8 ELISA of supernatants of Jurkat T-REx cells expressing human IL-1Rrp2 [2] | EC50, luciferase reporter assay in IL-1Rrp2 transfected Jurkat cells [3] |
| --- | --- | --- | --- | --- |
| HuIL-1F8WT (untagged full length wild type human IL-1F8) (ligand) MNPQREAAPKSYAIRDSRQMVWVLSGNSLIAAPLSRSIKPVTLHLIACRDTEFSDKEKGNMVYLGIKGKDLCLFCAEIQGKPTLQLKEKNIMDLYVEKKAQKPFLFFHNKEGSTSVFQSVSYPGWFIATSTTSGQPIFLTKERGITNNTNFYLDSVE | 10500 ng/mL | > 193 ng/mL | – | – |
| HuIL-1F8WT/FpH (ligand) MNPQREAAPKSYAIRDSRQMVWVLSGNSLIAAPLSRSIKPVTLHLIACRDTEFSDKEKGNMVYLGIKGKDLCLFCAEIQGKPTLQLKEKNIMDLYVEKKAQKPFLFFHNKEGSTSVFQSVSYPGWFIATSTTSGQPIFLTKERGITNNTNFYLDSVEDYKDDDDKHHHHHH | – | > 258 ng/mL | – | – |
| HuIL-1F9S18 (ligand) SMCKPITGTINDLNQQVWTLQGQNLVAVPRSDSVTPVTVAVITCKYPEALEQGRGDPIYLGIQNPEMCLYCEKVGEQPTLQLKEQKIMDLYGQPEPVKPFLFYRAKTGRTSTLESVAFPDWFIASSKRDQPIILTSELGKSYNTAFELNIND | – | – | 1 ng/mL | – |
| HuIL-1F6I7/FpH (ligand) MIDTPQRGSIQDINHRVWVLQDQTLIAVPRKDRMSPVTIALISCRHVETLEKDRGNPIYLGLNGLNLCLMCAKVGDQPTLQLKEKDIMDLYNQPEPVKSFLFYHSQSGRNSTFESVAFPGWFIAVSSEGGCPLILTQELGKANTTDFGLTMLFDYKDDDDKHHHHHH | – | – | 60 ng/mL | 2.8 ng/mL |
| HuIL-1F6WT/FpH (ligand) MEKALKIDTPQQGSIQDINHRVWVLQDQTLIAVPRKDRMSPVTIALISCRHVETLEKDRGNPIYLGLNGLNLCLMCAKVGDQPTLQLKEKDIMDLYNQPEPVKSFLFYHSQSGRNSTFESVAFPGWFIAVSSEGGCPLILTQELGKANTTDFGLTMLFDYKDDDDKHHHHHH | – | > 136 ng/mL | – | – |
| HuIL-1F9WT/FpH (ligand) MRGTPGDADGGGRAVYQSMCKPITGTINDLNQQVWTLQGQNLVAVPRSDSVTPVTVAVITCKYPEALEQGRGDPIYLGIQNPEMCLYCEKVGEQPTLQLKEQKIMDLYGQPEPVKPFLFYRAKTGRTSTLESVAFPDWFIASSKRDQPIILTSELGKSYNTAFELNINDDYKDDDDKHHHHHH | – | > 332 ng/mL | – | – |
| HuIL-1F9S18/FpH (ligand) SMCKPITGTINDLNQQVWTLQGQNLVAVPRSDSVTPVTVAVITCKYPEALEQGRGDPIYLGIQNPEMCLYCEKVGEQPTLQLKEQKIMDLYGQPEPVKPFLFYRAKTGRTSTLESVAFPDWFIASSKRDQPIILTSELGKSYNTAFELNINDDYKDDDDKHHHHHH | – | – | 17 ng/mL | 1 ng/mL |

Next, values leading:

| EC50, IL-8 ELISA of supernatants of Jurkat T-REx cells expressing human IL-1Rrp2 [1] | EC50, luciferase reporter assay in IL-1Rrp2 transfected Jurkat cells [1] | EC50, IL-8 ELISA of supernatants of Jurkat T-REx cells expressing human IL-1Rrp2 [2] | EC50, luciferase reporter assay in IL-1Rrp2 transfected Jurkat cells [3] | Binder |
| --- | --- | --- | --- | --- |
| – | – | 0.129 ng/mL | – | HuIL-1F8R5 (ligand) REAAPKSYAIRDSRQMVWVLSGNSLIAAPLSRSIKPVTLHLIACRDTEFSDKEKGNMVYLGIKGKDLCLFCAEIQGKPTLQLKEKNIMDLYVEKKAQKPFLFFHNKEGSTSVFQSVSYPGWFIATSTTSGQPIFLTKERGITNNTNFYLDSVE |
| – | – | 0.164 ng/mL | – | HuIL-1F6K6 (ligand) KIDTPQQGSIQDINHRVWVLQDQTLIAVPRKDRMSPVTIALISCRHVETLEKDRGNPIYLGLNGLNLCLMCAKVGDQPTLQLKEKDIMDLYNQPEPVKSFLFYHSQSGRNSTFESVAFPGWFIAVSSEGGCPLILTQELGKANTTDFGLTMLF |
| 4070 ng/mL | > 544 ng/mL | – | – | HuIL-1F9WT (untagged full length wild type human IL-1F9) (ligand) MRGTPGDADGGGRAVYQSMCKPITGTINDLNQQVWTLQGQNLVAVPRSDSVTPVTVAVITCKYPEALEQGRGDPIYLGIQNPEMCLYCEKVGEQPTLQLKEQKIMDLYGQPEPVKPFLFYRAKTGRTSTLESVAFPDWFIASSKRDQPIILTSELGKSYNTAFELNIND |
| – | – | 2 ng/mL | 0.2 ng/mL | HuIL-1F8E6/FpH (ligand) MEAAPKSYAIRDSRQMVWVLSGNSLIAAPLSRSIKPVTLHLIACRDTEFSDKEKGNMVYLGIKGKDLCLFCAEIQGKPTLQLKEKNIMDLYVEKKAQKPFLFFHNKEGSTSVFQSVSYPGWFIATSTTSGQPIFLTKERGITNNTNFYLDSVEDYKDDDDKHHHHHH |
| 12900 ng/mL | > 212 ng/mL | – | – | HuIL-1F6 WT (untagged full length wild type human IL-1F6) (ligand) MEKALKIDTPQQGSIQDINHRVWVLQDQTLIAVPRKDRMSPVTIALISCRHVETLEKDRGNPIYLGLNGLNLCLMCAKVGDQPTLQLKEKDIMDLYNQPEPVKSFLFYHSQSGRNSTFESVAFPGWFIAVSSEGGCPLILTQELGKANTTDFGLTMLF |
| – | – | – | 1.1 ng/mL | HuIL-1F9M19/FpH (ligand) MMCKPITGTINDLNQQVWTLQGQNLVAVPRSDSVTPVTVAVITCKYPEALEQGRGDPIYLGIQNPEMCLYCEKVGEQPTLQLKEQKIMDLYGQPEPVKPFLFYRAKTGRTSTLESVAFPDWFIASSKRDQPIILTSELGKSYNTAFELNINDDYKDDDDKHHHHHH |
